Experimental data from paper PMC10358891, “The AMP deaminase of the mollusk Helix pomatia is an unexpected member of the adenosine deaminase-related growth factor (ADGF) family” (PLOS ONE, 2023).

Substrate: Nc1ncnc2c1ncn2[C@@H]1O[C@H](COP(=O)(O)O)[C@@H](O)[C@H]1O
Assay: spectrophotometric deamination assay, initial rates, Lineweaver-Burk
Type: biochemical, Helix pomatia
Conditions: 20 mM Tris-HCl pH 7.5, 50 mM NaCl, 25 °C (general assay buffer)
Description: spectrophotometric deamination assay, initial rates, Lineweaver-Burk on […]

B1: HPAMPD (recombinant H. pomatia AMP deaminase) (Helix pomatia) (protein)
chain: LAVRFPTMDEYTNAREELIGSEQYLRVGGSINLNNKEKKLNQFILREKRAIIENSRLNKTQYIPAVSFFLSKSQMESTPIFKIIKDMPKGAALHLHDTASARIDWIVSNATYRDHVYMCMDQDNFVRLTVSGTGPPANSGCEWKLVETERANSGDIAAFDHWLKSNISLLTTDPLVTYPSLDKVWGRFDKHFSQLRGIIYHTPIRRDYYRQILEEFRSDNVQYVEVRSSLSGYYDLDGTVHDPEYGLQLYKAVTEEFVRTYPDFSGAKIIKSTARVKPNTDIFNDVKLSMDLYKRYPGFFLGFDLVAQEDPNTSLLGYIDSLLYPSRQNPPVSLPYYFHAGETNWQGTEVDYNLVDALLLNATRIGHGFALIKHPRVIELVKSRGVAVEVNPVSNQLLGLVKDLRNHAAAPLLAQNVPVVISSDDPGVWEALPMSHDMYVAFMDLVGEDAGLDVLKQLVWNSIQYSSMNATEKKTALKLLQAKWNNFINDSLIKWKLTNKKVI
notes: secreted from Pichia pastoris with alpha-factor signal; C-terminal His10; Endo Hf treated; 58676 Da; ORF 536 residues; homodimer predicted
In the case of B1, the Km is reported as 25 µM and the kcat is reported as 170 per second.
